In US20230272099A1 (Chugai, published 2023):
Substitutions are numbered along the chain they refer to.

T1: human FcgRIIb extracellular domain (human, UniProt P31994 43-217)
T1 construct: extracellular domain; also called hFcgRIIb
T1 sequence (looked up): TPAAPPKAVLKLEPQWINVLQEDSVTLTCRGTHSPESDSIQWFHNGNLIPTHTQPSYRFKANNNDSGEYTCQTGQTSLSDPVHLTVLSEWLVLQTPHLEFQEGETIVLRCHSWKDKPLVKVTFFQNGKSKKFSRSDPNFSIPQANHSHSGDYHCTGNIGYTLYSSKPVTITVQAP

T2: human FcgRIIa type R extracellular domain (human, UniProt P12318 34-217)
T2 construct: extracellular domain; also called hFcgRIIaR
T2 sequence (looked up): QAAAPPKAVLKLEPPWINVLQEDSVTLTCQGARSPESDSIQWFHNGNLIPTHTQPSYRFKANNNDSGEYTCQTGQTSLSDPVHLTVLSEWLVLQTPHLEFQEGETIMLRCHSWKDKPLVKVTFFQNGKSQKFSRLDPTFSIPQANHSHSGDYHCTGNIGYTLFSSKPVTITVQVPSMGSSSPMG

T3: human FcgRIIa type H extracellular domain (human, UniProt P12318 34-217)
T3 construct: extracellular domain; also called hFcgRIIaH
T3 sequence (looked up): T2 sequence (looked up) with R134H

B1: A375-SCF033/B167-Lamlib (antibody, human IgG1, lambda)
heavy: EVQLVESGGGLVKPGGSLRLSCAASGFTFSTFTMNWVRQAPGKGLEWVSSISSKSTYIEYADSFKVRFTISRDNAKNSLYLQMNSLRAEDTAVYYCARYGAKNFLNWVFDYWGQGTLVTVSSASTKGPSVFPLAPSSKSTSGGTAALGCLVKDYFPEPVTVSWNSGALTSGVHTFPAVLQSSGLYSLSSVVTVPSSSLGTQTYICNVNHKPSNTKVDKKVEPKSCDKTHTCPPCPAPEYLGDDSVFLFPPKPKDVLMISRTPEVTCVVVDVSHEDPEVKFNWYVDGVEVHNAKTKPREEQYNSTYRVVSVLPVLHRDWLNGKEYKCKVSNKALPKPIEKTISKAKGQRREPQVYTLPPSREEMTKNQVSLTCLVKGFYPSDIAVEWESNGQPENNYKTTPPVLDSDGSFFLYSKLTVDKSRWQQGNVFSCSVMHEALHNHYTQKSLSLSP
light: QSALTQPPSASGSPGQTVTISCTGTRYDVGYYEYVSWYQQHPGKAPKLMIYETSKRLSGVPDRFSGSKSGNTASLTVSGLQAEDEADYYCSSYRYEHQVSFGGGTKLTVLGQPKAAPSVTLFPPSSEELQANKATLVCLISDFYPGAVTVAWKADSSPVKAGVETTTPSKQSNNKYAASSYLSLTPEQWKSHRSYSCQVTHEGSTVEKTVAPTECS
B2: A375-SCF056a/B167-Lamlib (antibody, human IgG1, lambda)
heavy: B1 heavy with K219R, Y239L, G241N, D242G, D243P, V255T, H273D, P312T, R348P
light: B1 light
notes: copies: 2 + 2
B3: A375-SCF042a/B167-Lamlib (antibody, human IgG1, lambda)
heavy: EVQLVESGGGLVKPGGSLRLSCAASGFTFSTFTMNWVRQAPGKGLEWVSSISSKSTYIEYADSFKVRFTISRDNAKNSLYLQMNSLRAEDTAVYYCARYGAKNFLNWVFDYWGQGTLVTVSSASTKGPSVFPLAPSSKSTSGGTAALGCLVKDYFPEPVTVSWNSGALTSGVHTFPAVLQSSGLYSLSSVVTVPSSSLGTQTYICNVNHKPSNTKVDKRVEPKSCDKTHTCPPCPAPELLNGPSVFLFPPKPKDTLMISRTPEVTCVVVDVSDEDPEVKFNWYVDGVEVHNAKTKPREEQYNSTYRVVSVLTVLHQDWLNGKEYKCKVSNKALPKPIEKTISKAKGQPREPQVYTLPPSREEMTKNQVSLTCLVKGFYPSDIAVEWESNGQPENNYKTTPPVLDSDGSFFLYSKLTVKKSRWQQGNVFSCSVMHEALHNHYTQKSLSLSP
light: B1 light
notes: copies: 2 + 2
B4: A375-SCF043aPh/B167-Lamlib (antibody, human IgG1, lambda)
heavy: B3 heavy with L240W, P348R
light: B1 light
B5: A375-SCF040/B167-Lamlib (antibody, human IgG1, lambda)
heavy: B3 heavy with R219K, L240W, Q300L, K331T
light: B1 light
notes: copies: 2 + 2
B6: A375-SCF039a/B167-Lamlib (antibody, human IgG1, lambda)
heavy: B3 heavy with L240W, Q300L, K331T, P348R, K418D
light: B1 light
B7: A375-SCF043a/B167-Lamlib (antibody, human IgG1, lambda)
heavy: B3 heavy with P348R
light: B1 light
B8: A375-SCF041aPh/B167-Lamlib (antibody, human IgG1, lambda)
heavy: B3 heavy with L240W, P348R, K418D
light: B1 light
B9: A375-SCF039/B167-Lamlib (antibody, human IgG1, lambda)
heavy: B3 heavy with R219K, L240W, Q300L, K331T, P348R, K418D
light: B1 light
B10: A375-SCF041a/B167-Lamlib (antibody, human IgG1, lambda)
heavy: B3 heavy with P348R, K418D
light: B1 light

molecular target: human FcRn (human, UniProt P55899 24-290; P61769 21-119); assay: SPR 25C pH 6.0, steady state
How it was run: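 Antibody (~400 RU) captured on anti-Fab-lambda sensor chip, human FcRn injected as analyte.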

| Kd [nM] | Binder |
| --- | --- |
| 874 | B1 |
| 956 | B2 |
| 1490 | B3 |
| 1210 | B4 |
| 1460 | B5 |
| 1110 | B6 |
| 1180 | B7 |
| 1130 | B8 |
| 1090 | B9 |
| 1100 | B10 |

molecular target: T1, human FcgRIIb extracellular domain; assay: SPR 25C

| binding per 1RU antibody [RU] | relative binding (A375-G1T3/B167-Lamlib=1) | Binder |
| --- | --- | --- |
| 0.0979 | 8.94 | B1 |
| 0.0399 | 3.64 | B2 |
| 0.0393 | 3.59 | B3 |
| 0.0339 | 3.1 | B4 |
| 0.0465 | 4.24 | B5 |
| 0.054 | 4.93 | B6 |
| 0.0419 | 3.82 | B7 |
| 0.035 | 3.2 | B8 |
| 0.0531 | 4.85 | B9 |
| 0.0433 | 3.95 | B10 |

molecular target: T2, human FcgRIIa type R extracellular …; assay: SPR 25C

| binding per 1RU antibody [RU] | relative binding (A375-G1T3/B167-Lamlib=1) | Binder |
| --- | --- | --- |
| 0.0255 | 0.55 | B1 |
| 0.0331 | 0.71 | B2 |
| 0.0327 | 0.71 | B3 |
| 0.0349 | 0.75 | B4 |
| 0.0446 | 0.96 | B5 |
| 0.0554 | 1.2 | B6 |
| 0.0361 | 0.78 | B7 |
| 0.0371 | 0.8 | B8 |
| 0.0542 | 1.17 | B9 |
| 0.0376 | 0.81 | B10 |

molecular target: T4, human FcgRIIIa V158 extracellular domain (human, UniProt P08637 17-208); assay: SPR 25C
T4 construct: extracellular domain; also called hFcgRIIIaV
T4 sequence (P08637 17-208 F176V): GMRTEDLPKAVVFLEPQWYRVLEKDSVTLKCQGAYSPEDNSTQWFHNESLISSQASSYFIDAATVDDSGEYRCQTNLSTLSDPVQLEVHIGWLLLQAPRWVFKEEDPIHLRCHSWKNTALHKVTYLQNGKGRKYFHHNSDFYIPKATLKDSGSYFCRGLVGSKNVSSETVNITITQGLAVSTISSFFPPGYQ

| binding per 1RU antibody [RU] | relative binding (A375-G1T3/B167-Lamlib=1) | Binder |
| --- | --- | --- |
| 0.0002 | 0 | B1 |
| 0.0023 | 0.03 | B2 |
| 0.0014 | 0.02 | B3 |
| 0.0001 | 0 | B4 |
| 0.0013 | 0.02 | B5 |
| 0.0013 | 0.02 | B6 |
| 0.0025 | 0.04 | B7 |
| 0.0005 | 0.01 | B8 |
| 0.0013 | 0.02 | B9 |
| 0.0022 | 0.03 | B10 |

molecular target: T3, human FcgRIIa type H extracellular …; assay: SPR 25C

| binding per 1RU antibody [RU] | relative binding (A375-G1T3/B167-Lamlib=1) | Binder |
| --- | --- | --- |
| 0.0103 | 0.18 | B1 |
| 0.0529 | 0.93 | B2 |
| 0.0522 | 0.92 | B3 |
| 0.0349 | 0.62 | B4 |
| 0.0454 | 0.8 | B5 |
| 0.0542 | 0.96 | B6 |
| 0.0552 | 0.97 | B7 |
| 0.0371 | 0.65 | B8 |
| 0.0535 | 0.94 | B9 |
| 0.0571 | 1.01 | B10 |

molecular target: T5, human FcgRIa extracellular domain (human, UniProt P12314 16-292); assay: SPR 25C
T5 construct: extracellular domain; also called hFcgRIa
T5 sequence (P12314 16-292): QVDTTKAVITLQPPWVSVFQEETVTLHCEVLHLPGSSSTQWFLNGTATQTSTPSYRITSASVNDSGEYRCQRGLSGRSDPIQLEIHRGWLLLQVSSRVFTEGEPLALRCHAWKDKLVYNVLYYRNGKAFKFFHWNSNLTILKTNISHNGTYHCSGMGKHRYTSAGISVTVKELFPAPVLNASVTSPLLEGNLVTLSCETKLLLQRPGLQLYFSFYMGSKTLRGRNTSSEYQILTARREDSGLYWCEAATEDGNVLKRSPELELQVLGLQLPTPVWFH

| binding per 1RU antibody [RU] | relative binding (A375-G1T3/B167-Lamlib=1) | Binder |
| --- | --- | --- |
| 0.0033 | 0.04 | B1 |
| 0.0395 | 0.49 | B2 |
| 0.0396 | 0.49 | B3 |
| 0.0011 | 0.01 | B4 |
| 0.0016 | 0.02 | B5 |
| 0.0018 | 0.02 | B6 |
| 0.0429 | 0.53 | B7 |
| 0.0013 | 0.02 | B8 |
| 0.0018 | 0.02 | B9 |
| 0.0446 | 0.55 | B10 |

molecular target: T6, human FcgRIIIa F158 extracellular domain (human, UniProt P08637 17-208); assay: SPR 25C
T6 construct: extracellular domain; also called hFcgRIIIaF
T6 sequence (P08637 17-208): as the sequence (P08637 17-208 F176V) above, with V160F counted along it

| binding per 1RU antibody [RU] | relative binding (A375-G1T3/B167-Lamlib=1) | Binder |
| --- | --- | --- |
| 0 | 0 | B1 |
| 0.0011 | 0.05 | B2 |
| 0.0003 | 0.01 | B3 |
| 0.0001 | 0 | B4 |
| 0.001 | 0.05 | B5 |
| 0.0012 | 0.06 | B6 |
| 0.0011 | 0.05 | B7 |
| 0.0007 | 0.03 | B8 |
| 0.0008 | 0.04 | B9 |
| 0.0009 | 0.04 | B10 |
